Values joined by “and” are separate entries in the source; they are usually repeats but may differ in a detail not shown here. Equal entries are not always repeated. Some results are limits rather than exact numbers.

As usually defined, the Kd is the free concentration of one partner at which half of the binding sites on the other are occupied at equilibrium, for simple one-to-one binding. Lower therefore signals a tighter complex. By koff is commonly meant a measure of how fast the partners let go of each other. Lower therefore signals a long-lived complex. By kon is commonly meant a measure of how fast the partners come together. Low values mean slow association, high ones fast association.

The target in assay [1] is LigB12, tag free (12th Ig-like domain of Leptospira immunoglobulin-like protein B) (Leptospira interrogans serovar Pomona). Description: SPR; Biacore 3000; tag free LigB12 amine-coupled to a CM5 chip (1000 RU); FgαCC truncates 0-3 μM in PBS, 30 μL/min, 25°C; 1:1 Langmuir model. (In general: Surface plasmon resonance follows binding to a sensor surface in real time, without labels.)

Assay [2] concerns the target LigB12 A1065K (Leptospira interrogans serovar Pomona). Description: ELISA; LigB12 WT, mutants or BSA coated (1 μM/well); 5 μM GST-FgαCC8; anti-GST-HRP; relative binding (%) against WT.
For assay [3], the target named is LigB12 F1054A (Leptospira interrogans serovar Pomona). Described as above.
The target of assay [4] is LigB12 D1061N (Leptospira interrogans serovar Pomona). Described as above.
Assay [5] has as its target D1066A and E1088A. The assay is described as above.
Assay [6] deals with FgαCC5 (human) (UniProt P02671). Description: ELISA; 1 μM FgαCC, FgαCC truncates or BSA coated on microtiter wells; GST-LigB12 0-3 μM, 1 h 37°C; anti-GST-HRP; KD = EC50 of a dose-response fit.
The target of assay [7] is FgαCC3 (human) (UniProt P02671). The description is as above.
In assay [8] the target is FgαCC2 (human) (UniProt P02671). Described as above.
The target of assay [9] is FgαCC (C-terminal region of the fibrinogen αC domain) (human) (UniProt P02671). Described as above.
Assay [10] concerns the target FgαCC8 (C-terminal 23 amino acids of the fibrinogen α chain) (human) (UniProt P02671). The description is as above.
Assay [11] addresses FgαCC8 L618A (human) (UniProt P02671). Description: ELISA; FgαCC8 WT, alanine mutants or BSA coated (1 μM/well); 5 μM GST-LigB12; anti-GST-HRP; relative binding (%) against WT. For orientation: An ELISA detects its analyte on a solid surface through an enzyme-linked reagent.
Assay [12] concerns the target FgαCC8 I613A (human) (UniProt P02671). The assay is described as above.
For assay [13], the target named is FgαCC8 H614A (human) (UniProt P02671). Described as above.
For assay [14], the target named is FgαCC8 R608A (human) (UniProt P02671). Described as above.
For assay [15], the target named is FgαCC8 R611A (human) (UniProt P02671). Described as above.
In assay [16] the target is His-Sumo tagged FgαCC8 (human) (UniProt P02671). The experiment in a line: ELISA; His-Sumo FgαCC8 captured by coated anti-His antibody; GST-LigB12 0-5 μM in phosphate buffer pH 6, 1200 mM NaCl; anti-GST-HRP.
Assay [17] has the same target. The experiment in a line: ELISA; His-Sumo FgαCC8 captured by coated anti-His antibody; GST-LigB12 0-5 μM in phosphate buffer pH 7, 1200 mM NaCl; anti-GST-HRP.
Assay [18] has the same target. The experiment in a line: ELISA; His-Sumo FgαCC8 captured by coated anti-His antibody; GST-LigB12 0-5 μM in phosphate buffer pH 7, 150 mM NaCl; anti-GST-HRP (Fig 5A and Fig 5B).
Assay [19] shares this target. The experiment in a line: ELISA; His-Sumo FgαCC8 captured by coated anti-His antibody; GST-LigB12 0-5 μM in phosphate buffer pH 6, 150 mM NaCl; anti-GST-HRP.
Assay [20] has the same target. Description: ELISA; His-Sumo FgαCC8 captured by coated anti-His antibody; GST-LigB12 0-5 μM in phosphate buffer pH 7, 75 mM NaCl; anti-GST-HRP.
Assay [21] has the same target. The experiment in a line: ELISA; His-Sumo FgαCC8 captured by coated anti-His antibody; GST-LigB12 0-5 μM in phosphate buffer pH 5, 150 mM NaCl; anti-GST-HRP.
For assay [22] the target is unchanged. The experiment in a line: ELISA; His-Sumo FgαCC8 captured by coated anti-His antibody; GST-LigB12 0-5 μM in phosphate buffer pH 6, 75 mM NaCl; anti-GST-HRP.
In assay [23] the target is Factor XIII (FXIII) (UniProt P00488). Description: ELISA; FXIII, FgαCC8 (positive control) or BSA coated; GST-LigB12 0-3 μM; anti-GST-HRP.
The target is the same in assay [24]. Description: ELISA; inhibition: FXIII coated; tag free LigB12 or LigB4 0-10 μM, 1 h 37°C, unbound washed off; then 1 μM His-Sumo FgαCC, 1 h 37°C; anti-His-HRP; binding relative to wells without LigB.
In assay [25] the target is GST tagged FgαCC8, P02671-2. The experiment in a line: ELISA. Conditions: 5 μM GST tagged FgαCC8 added to coated wells (1 μM/well); parent: est. 100; read off a plot.
Assay [26] addresses T1, GST tagged LigB12 (12th Ig-like domain of Leptospira immunoglobulin-like protein B).
T1 chain: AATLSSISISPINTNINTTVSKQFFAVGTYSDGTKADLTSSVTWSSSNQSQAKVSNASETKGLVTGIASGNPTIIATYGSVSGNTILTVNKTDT
The experiment in a line: ELISA. The note with it: chain shown with the change; 5 μM GST tagged LigB12 added to coated wells (1 μM/well); parent: est. 100; read off a plot.

Chain of UniProt P00488 (P00488 whole entry, chain 1 of 2): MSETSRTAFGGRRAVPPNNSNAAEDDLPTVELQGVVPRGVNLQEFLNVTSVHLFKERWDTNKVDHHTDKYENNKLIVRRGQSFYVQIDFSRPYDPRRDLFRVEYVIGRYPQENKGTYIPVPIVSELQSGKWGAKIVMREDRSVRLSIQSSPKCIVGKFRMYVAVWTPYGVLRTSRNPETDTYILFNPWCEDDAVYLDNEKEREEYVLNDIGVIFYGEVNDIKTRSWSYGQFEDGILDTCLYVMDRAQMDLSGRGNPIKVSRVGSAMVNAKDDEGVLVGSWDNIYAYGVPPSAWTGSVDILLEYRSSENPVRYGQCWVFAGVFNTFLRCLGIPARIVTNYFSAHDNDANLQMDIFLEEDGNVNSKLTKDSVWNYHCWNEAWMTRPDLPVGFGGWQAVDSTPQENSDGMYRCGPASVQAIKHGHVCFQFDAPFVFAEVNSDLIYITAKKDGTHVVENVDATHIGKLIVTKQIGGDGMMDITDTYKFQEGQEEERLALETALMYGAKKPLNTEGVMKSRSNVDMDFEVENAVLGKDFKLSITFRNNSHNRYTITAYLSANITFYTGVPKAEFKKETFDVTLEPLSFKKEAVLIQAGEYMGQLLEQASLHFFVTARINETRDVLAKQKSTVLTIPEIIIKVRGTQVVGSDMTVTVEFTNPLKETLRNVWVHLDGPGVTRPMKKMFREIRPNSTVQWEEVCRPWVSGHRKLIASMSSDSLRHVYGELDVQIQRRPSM
Chain of UniProt P00488 (P05160 21-661, chain 2 of 2, further chain): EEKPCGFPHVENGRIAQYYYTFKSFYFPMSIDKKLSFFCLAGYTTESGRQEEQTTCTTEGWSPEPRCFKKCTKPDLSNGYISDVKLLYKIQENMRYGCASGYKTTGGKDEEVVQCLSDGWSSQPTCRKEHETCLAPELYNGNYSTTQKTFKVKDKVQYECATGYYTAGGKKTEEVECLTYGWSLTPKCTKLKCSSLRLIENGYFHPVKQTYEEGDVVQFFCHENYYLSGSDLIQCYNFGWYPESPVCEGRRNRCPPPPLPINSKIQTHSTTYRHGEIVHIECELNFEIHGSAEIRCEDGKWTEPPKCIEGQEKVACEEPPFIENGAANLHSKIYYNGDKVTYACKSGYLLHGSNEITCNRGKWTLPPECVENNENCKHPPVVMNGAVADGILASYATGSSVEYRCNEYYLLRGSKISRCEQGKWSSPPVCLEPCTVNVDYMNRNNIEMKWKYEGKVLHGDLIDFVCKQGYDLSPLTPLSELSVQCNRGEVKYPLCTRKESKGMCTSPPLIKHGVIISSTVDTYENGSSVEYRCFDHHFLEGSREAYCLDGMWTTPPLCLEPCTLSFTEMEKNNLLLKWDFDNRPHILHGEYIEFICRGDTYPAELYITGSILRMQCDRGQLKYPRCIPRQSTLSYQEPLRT

For “FgαCC3 (from UniProt P02671-2 526-644) (domain or fragment)”, in assay [1], the Kd was 704 nM, the koff is 0.0339 s⁻¹ and the kon was determined as 48100 M⁻¹ s⁻¹.

For “FgαCC5 (from UniProt P02671-2 579-644) (domain or fragment)”, in [1], the Kd turned out to be 1040 nM, the koff was found to be 0.0384 s⁻¹ and the on-rate (kon) was determined as 36900 M⁻¹ s⁻¹.

In [1], “FgαCC8 (C-terminal 23 amino acids of the fibrinogen α chain) (from UniProt P02671-2 622-644) (domain or fragment)” came in with a Kd of 959 nM, a koff of 0.0357 s⁻¹ and a kon of 37200 M⁻¹ s⁻¹.

Turning to “GST tagged FgαCC8 (from UniProt P02671-2 622-644) (domain or fragment)”, the percent reduction of binding relative to WT in [2] is 46%; in assay [3] it was 51%; in assay [4], greater than 30%; in [5] it was 10 to 12%.

As to “GST tagged LigB12 (12th Ig-like domain of Leptospira immunoglobulin-like protein B) (domain or fragment)”, the Kd was determined as 580 nM in [6]; 510 nM in assay [7]; 370 nM in assay [9]; 760 nM in [10]; 220 nM in assay [16]; 6610 nM in assay [17]. Also, the Kd in assay [18] is 820 nM and 620 nM; in [19], 470 nM; in assay [20] it was 460 nM; in assay [21] it was 1830 nM; in [22], 1290 nM; in assay [23], 150 nM. The fold over the negative control (BSA) at 3 μM LigB12 in [8] is 2.5 fold. The percent reduction of binding relative to WT in assay [11] was 12%; in [12], 47%; in assay [13], 50%; in [14] it was greater than 60%; in assay [15], greater than 60%.

The molecule “LigB12, tag free (12th Ig-like domain of Leptospira immunoglobulin-like protein B) (domain or fragment)” came in with a percent reduction of FgαCC binding to FXIII at high LigB12 concentrations (fit of the dose inhibition curve) in [24] of 56.7%.

For “LigB12, tag free (12th Ig-like domain of Leptospira immunoglobulin-like protein B) D1066A”, in [25], the percent of parent is 88 % of WT.

Take “LigB12, tag free (12th Ig-like domain of Leptospira immunoglobulin-like protein B) E1088A”: the percent of parent in assay [25] is 90 % of WT.

Take “LigB12, tag free (12th Ig-like domain of Leptospira immunoglobulin-like protein B) P1040C; F1053C”: the percent of parent in assay [25] was 96 % of WT.

Consider GHAKSRPARGIHTSPLGKPSLSP [FgαCC8 (C-terminal 23 amino acids of the fibrinogen α chain), P02671-2 V610A], for which, in [26], the percent of parent was 99 % of WT.

MADEAGSEADHEGTHSTARGHAK [FgαCC8 (C-terminal 23 amino acids of the fibrinogen α chain), P02671-2 K620A]: the percent of parent in [26] was 77 % of WT.

GHAASRPVRGIHTSPLGKPSLSP [FgαCC8 (C-terminal 23 amino acids of the fibrinogen α chain), P02671-2 K606A]: the percent of parent in assay [26] was 78 % of WT.

The values above are taken from article PMC5021285.
